# Where two headings read alike, the source gives them in different places.
# Experiments:
# [1] = target: T1, extracellular domain of human BLyS protein (hBLyS-ECD), His-tagged, Ala134-Leu285 (human, UniProt Q9Y275 134-285); test: cell-based or functional assay
# biotinylated hBLyS-ECD [2] = target: T2, biotinylated hBLyS-ECD (human, UniProt Q9Y275 134-285, biotinylated with Biotin-X-X-NHS (molar ratio 7:1); sites not stated); test: ELISA on captured biotinylated hBLyS-ECD; antibody 13.3 nM
# T2 construct: also called biotinylated immunogen; biotinylated hBLvS-ECD
# biotinylated hBLyS-ECD [3] = target: T2, biotinylated hBLyS-ECD; test: ELISA on captured biotinylated hBLyS-ECD; antibody 2.67 nM
# biotinylated hBLyS-ECD [4] = target: T2, biotinylated hBLyS-ECD; test: ELISA on captured biotinylated hBLyS-ECD; antibody 66.7 nM
# biotinylated hBLyS-ECD [5] = target: T2, biotinylated hBLyS-ECD; test: ELISA on captured biotinylated hBLyS-ECD; antibody 0.107 nM
# biotinylated hBLyS-ECD [6] = target: T2, biotinylated hBLyS-ECD; test: ELISA on captured biotinylated hBLyS-ECD; antibody 0.534 nM
# biotinylated hBLyS-ECD [7] = target: T2, biotinylated hBLyS-ECD; test: ELISA on captured biotinylated hBLyS-ECD; antibody 0.0213 nM
# biotinylated hBLyS-ECD [8] = target: T2, biotinylated hBLyS-ECD; test: ELISA on captured biotinylated hBLyS-ECD; antibody 0.00427 nM
# biotinylated hBLyS-ECD [9] = target: T2, biotinylated hBLyS-ECD; test: ELISA on captured biotinylated hBLyS-ECD; antibody 0 nM (background)
# [10] = target: T1, extracellular domain of human BLyS …; test: SPR (Biacore), antibody captured by anti-human Fc, hBLyS-ECD as analyte
# [11] = target: T1, extracellular domain of human BLyS …; test: cell-based or functional assay; remark: listed apart in the source
# biotinylated hBLyS-ECD [12] = target: T3, biotinylated hBLyS-ECD (human, UniProt Q9Y275 134-285, biotinylated with Biotin-X-X-NHS (molar ratio 7:1), sites not stated); test: ELISA: biotinylated hBLyS-ECD captured on streptavidin, antibody titrated, HRP secondary antibody
# T3 construct: The hBLyS-ECD of Embodiment 1 after biotinylation (Embodiment 2); also called biotinylated immunogen; BLyS protein; not shown: His tag of the pCPC vector
# biotinylated hBLyS-ECD [13] = target: T3, biotinylated hBLyS-ECD; test: as above; remark: listed apart in the source
"Proportion of B lymphocytes in splenocytes (%), in vivo in mice [1] [%]",OD450 nm (biotinylated hBLyS-ECD [2]) [OD450 nm],OD450 nm (biotinylated hBLyS-ECD [3]) [OD450 nm],OD450 nm (biotinylated hBLyS-ECD [4]) [OD450 nm],OD450 nm (biotinylated hBLyS-ECD [5]) [OD450 nm],OD450 nm (biotinylated hBLyS-ECD [6]) [OD450 nm],OD450 nm (biotinylated hBLyS-ECD [7]) [OD450 nm],OD450 nm (biotinylated hBLyS-ECD [8]) [OD450 nm],OD450 nm (biotinylated hBLyS-ECD [9]) [OD450 nm],Kd [10] [nM],koff [10] [s⁻¹],kon [10] [M⁻¹ s⁻¹],"OD450 nm (as headed), mouse B lymphocyte proliferation; antibody 0 nM [11]","OD450 nm (as headed), mouse B lymphocyte proliferation; antibody 0.000256 nM [11]","OD450 nm (as headed), mouse B lymphocyte proliferation; antibody 0.00128 nM [11]","OD450 nm (as headed), mouse B lymphocyte proliferation; antibody 0.0064 nM [11]","OD450 nm (as headed), mouse B lymphocyte proliferation; antibody 0.032 nM [11]","OD450 nm (as headed), mouse B lymphocyte proliferation; antibody 0.16 nM [11]","OD450 nm (as headed), mouse B lymphocyte proliferation; antibody 0.8 nM [11]",EC50 (read off the curve) (biotinylated hBLyS-ECD [12]) [nM],Binder,further results
33.2,3.39,3.4,3.43,2.12,3.16,0.747,0.222,0.105,0.297,2.98e-05,100000,,,,,,,,,"c111D10D6G3 (antibody, V domains shown) VH: QVQLQQPGAELVKPGASVKMSCKASGYTFTRHWITWVKQRPGQGLEWIGDIFPGSGSINYNEKFKSEATLTVEKSSSTAYMQLSSLTSEDSAVYYCARGDVDVWGTGTTVTVSS VL: DIQMTQSPSSLSASLGERVSLTCRASQEIRGYLSWLQQKPNGTIKRLIYAASTLDSGVPKRFSATRSGSDFSLTISSLESEDFADYYCLQYASYPFTFGSGTKLEIK",
27.1,,,,,,,,,0.386,0.000212,549000,4320,4600,4520,4920,4520,4300,1090,,"c93C6F10D3 (antibody, V domains shown) VH: EVQLVESGGGLVTPGGSLKLSCVASGFAFSTYGMSWVRQTPERRLEWVAYISGGGGSIYYPDSVKGRFTISRDNAKNILYLQMSSLKSEDTAMYHCTRHPDLLLRYDYALDHWGQGTSVTVSS VL: DIQMTQSPASLSASVGETVTITCRASENIHIYLAWYQQKQGKSPQLLVYNGKTLADGVPSRFSGSGSGTQYSLKINTLQPEDFGNYYCQHFWNSTWTFGGGTKLEIK","OD450 nm (as headed), mouse B lymphocyte proliferation; antibody 4 nM [11]: 527; OD450 nm (as headed), mouse B lymphocyte proliferation; antibody 20 nM [11]: 434; OD450 nm (as headed), mouse B lymphocyte proliferation; antibody 100 nM [11]: 389"
,,,,,,,,,,,,,,,,,,,~0.08,"h8E7D9C7F5-1 (antibody, human IgG1, V domains shown, Humanized (VH.1 / Vk.1); also called humanized BLyS antibody) VH: EVQLVQSGAEVKKPGASVKVSCKASGYTFTSYGISWVRQAPGQGLEWMGEIYPRSGNTYYNEKFKGRVTMTTDTSTSTAYMELRSLRSDDTAVYYCARSGPITTLVATDYGMDYWGQGTTVTVSS VL: DIVMTQSPDSLAVSLGERATINCRASKSVSTSSYSYMHWYQQKPGQPPKLLIKFASNLESGVPDRFSGSGSGTDFTLTISSLQAEDVAVYYCQHSREFPYTFGGGTKVEIK",
,3.24,2.94,3.19,1.58,2.73,0.523,0.143,0.0848,4.99,0.000159,32000,4060,4720,4810,5170,4340,3900,3970,,"c67A2E1D10 (antibody, V domains shown) VH: EVQLQQSGAELVKPGASVKLSCTASGFNIKNYYMHWVKQRTEEGLEWIGRIDPEDGETKYAPKFQAKATITADTSSNTAYLQLSSLTSEDTAVYFCARKGYYGNYGAWFAYWGQGTLVTVSA VL: DIQMTQSPASLSVSVGETVTITCRASEDLYSNLAWYQQKQGKSPQLLVYAATFLADGVPSRFSGSGSGTQYSLKINSLQSEDFGNYYCQHFWGTPPTFGGGTKLEIK","OD450 nm (as headed), mouse B lymphocyte proliferation; antibody 4 nM [11]: 3500; OD450 nm (as headed), mouse B lymphocyte proliferation; antibody 20 nM [11]: 2610; OD450 nm (as headed), mouse B lymphocyte proliferation; antibody 100 nM [11]: 1100"
,,,,,,,,,,,,,,,,,,,~0.1,"c8E7D9C7F5 (antibody, human IgG1, V domains shown, also called BLyS chimeric antibody) VH: QVQLQQSGVELARPGASVKLSCKASGYTFTSYGISWVKQRTGQALEWIGEIYPRSGNTYYNEKFKGKATLTADKSSSTAYMELRSLTSEDSAVYFCARSGPITTLVATDYGMDYWGQGTSVTVSS VL: DIVLTQSPASLAVSLGQRATISCRASKSVSTSSYSYMHWYQQKPGQPPKLLIKFASNLESGVPARFSGSGSGTDFTLNIHPVEEEDAATYYCQHSREFPYTFGGGTKLEIK",EC50 (read off the curve) (biotinylated hBLyS-ECD [13]): ~0.1 nM
,,,,,,,,,,,,,,,,,,,0.1 to 0.2,"h97A3C2H4-9 (antibody, human IgG1, V domains shown, Humanized (VH.1b / Vk.1d); also called humanized BLyS antibody) VH: EVQLVESGGGLVQPGGSLRLSCAASGFTFSTYTMSWVRQAPGKRLEWVAYISYGGGSTSYPDTVKGRFTISRDNAKNSLYLQMNSLRAEDTAVYYCTRHVTVVENSMDYWGQGTTVTVSS VL: DILLTQSPDFQSVTPKEKVTITCRASQSIGTSIHWYQQKTDQSPKLLIKYVSESFSGTPSRFSGSGSGTDFTLTINSLEAEDAATYYCQQTHSWPWTFGGGTKVEIK",

# Reference: US20210347873A1 (SHANGHAI PHARMAEXPLORER, published 2021)
